Laboratory results published in US11904007B2, “Protection from stress, anxiety, neuroinflammation, and cognitive dysfunction” (The Regents of the University of Colorado, a body corporate, priority 2018, dated 2024).

Assays:
Format in all cases: in vivo, rat
[1] = test system: IL-4; assay: Blocking of M. vaccae effects on hippocampal gene expression by ICM soluble IL-4 receptor alpha; conditions: 5 μg, ICM injection after M. vaccae at day −21, −14, −7
Procedure: FIG. 25 is a schematic depicting the experimental design configured to develop and validate IL-4 blocking methods in the brain. The schematic depicts the timing of M. vaccae or BBS treatment and intra-cisterna magna (ICM) injections containing soluble IL-4 receptor alpha or vehicle followed by tissue collection and analysis.
FIG. 26A-C show rtPCR detection in collection tissue samples after ICM injections for IL-4 (A); CD200R1 (B); and CD206 (C).
In this embodiment, rats were administered M. vaccae or BBC (at day −21, −14, and −7) and then administered 5 μg of soluble IL-4 receptor alpha or a control vehicle.

[2] = test system: Cd200r1; assay: Hippocampal Cd200r1 mRNA expression (real time RT-PCR); conditions: 100 ng i.c.m.
Procedure: (§1) Animals: Adult male Sprague-Dawley rats (60-90 d old) were pair-housed with food and water available ad libitum. The colony was maintained at 22° C. on a 12 h light/dark cycle (lights on at 07:00 h).
(§2) M. vaccae treatment: M. vaccae is a saprophytic environmental mycobacterium, which we have used previously to mitigate stress-induced anxiety-like behavior and peripheral proinflammatory responses. Briefly, whole heat-killed M. vaccae (strain NCTC 11659, batch ENG 1; Bio Elpida; 10 mg/ml) was suspended in sterile borate-buffered saline (BBS) to yield a final concentration of 1 mg/ml. Sterile BBS served as the vehicle control. Consistent with our prior work with M. vaccae, experimental animals received 3× subcutaneous (s.c.) immunizations with 0.1 mg whole heat-killed M. vaccae suspension (0.1 ml) or vehicle (0.1 ml). Injections occurred at −21 d, −14 d and −7 d prior to stress exposure. FIG. 5 provides a timeline of M. vaccae treatment relative to stress exposure, behavioral testing and tissue/microglia collection.
(§3) Recombinant rat IL4 (rIL4) treatment: Vehicle (sterile 1× PBS+0.1% BSA) or rIL4 (100 ng dissolved in vehicle; R & D Systems) was injected intra-cisterna magna (i.c.m.; 5 μl total volume). Two and 24 h post-injection, hippocampus was collected for gene expression analysis of IL4-sensitive target genes. […]

[3] = test system: Mrc1; assay: Hippocampal Mrc1 mRNA expression (real time RT-PCR); conditions: 100 ng i.c.m., 2 h post-injection
Procedure: as §1, §2, §3

[4] = test system: Cd200; assay: Hippocampal Cd200 mRNA expression (real time RT-PCR); conditions: 100 ng i.c.m., 2 h and 24 h post-injection
Procedure: as §1, §2, §3

For “soluble IL-4 receptor alpha: soluble form of IL-4 receptor alpha, can inhibit IL4-mediated cell proliferation; ICM injection”, the “Effect of M. vaccae administration on hippocampal gene expression” value [1] was “blocked”.

B1: rIL4: Recombinant rat IL4 (R & D Systems), injected intra-cisterna magna (protein, UniProt P20096 25-147, looked up)
Interleukin-4: CNDSPLREIINTLNQVTEKGTPCTEMFVPDVLTATRNTTENELICRASRVLRKFYFPRDVPPCLKNKSGVLGELRKLCRGVSGLNSLRSCTVNESTLTTLKDFLESLKSILRGKYLQSCTSMS
For B1, the “Cd200r1 expression in hippocampus” value ([2]; 2 h post-injection) was “significant increase”, the “Cd200r1 expression in hippocampus” value ([2]; 24 h post-injection) was “significant increase” and the “Mrc1 expression in hippocampus” value [3] was “significant increase”. For the same molecule, the “Cd200 expression in hippocampus” value [4] was “failed to significantly alter”.
